B1: human antibody HB48-59 (antibody, V domains shown)
VH: QVQLVQSGGEVKKPGALMKVSCKASGYIFTSYGISWVRQAPGQGLEWIGWINTYSGHTNYARKFRGRVTMTWDTSTSTAYMELSSLRSDDTAVYYCARVPTWGIDYWGQGTLVTVSS
VL: DIVMTQTPLSLPVTPGEPASISCRSSQSLLHSNGYNYLDWYLQKPGQSPQLLIYLGSKRASGVPDRFSGSGSGTDFTLQISRVEAEDVGVYYCMQSTQFPPYTFGQGTKLEIKR
B2: human antibody HB48-33 (antibody, V domains shown)
VH: B1 VH
VL: QAGLTQPPSVSVAPGKTARITCGGDNIGRKSVHWYQQKTGQAPVLVVYEDNKRPSGIPERFSGSNSGNTATLTISGTQAMDEADYYCQAWDSSTVVFGGGTKLTVLG

Molecular target: hepatitis B virus surface antigen (HBsAg) (Hepatitis B virus)
Assay: competitive ELISA: plate-coated HBsAg, soluble HBsAg as competitor, purified IgG

Row | Binder | fold lower affinity than HB48-35 [fold]
1 | B1 | 1.3
2 | B2 | 4

— patent publication US20120264921A1
